{"source": "paper PMC9558310", "about": "(ACS Chemical Biology, 2019)", "target": "the molecule itself", "assay": "SEC"}
{"protein": "Strep-tag recombinant human PLPBP (natural protein, pyridoxal 5'-phosphate bound at Lys47 (internal aldimine)) not shown", "values": [{"measurement": "stoichiometry N", "value": 2}]}
{"protein": "tag-free recombinant human pyridoxal 5'-phosphate-binding protein (PLPBP) (natural protein, pyridoxal 5'-phosphate bound at Lys47 (internal aldimine)) not shown", "values": [{"measurement": "stoichiometry N", "value": 2}]}
{"protein": "human PLPBP R41Q mutant (natural protein, fully saturated with PLP after purification) not shown", "values": [{"measurement": "binding result", "value": "binds"}]}
